The text below walks through data of patent publication US20120117691, “TRANSCRIPTION FACTORS FOR MODIFICATION OF LIGNIN CONTENT IN PLANTS” (The Samuel Roberts Noble Foundation, Inc., published 2012).

Data set [1] deals with T1, AtWRKY12 (Arabidopsis thaliana, UniProt Q93WY4 SEQ:1-218). The data set is described as follows: EMSA; 100 ng protein, 20 min; no binding detected. The settings on record: tags: MBP fusion, expressed in E. coli, amylose resin purified; label: 5' biotin on one strand. An excerpt:
(§1) To express the recombinant AtWRKY12 protein, the coding sequence was fused in frame with maltose binding protein (MBP), expressed in E. coli, and the recombinant protein was purified using amylose resin. The pure protein was used for EMSA with the NST2 or C3H promoter fragments. Double-strand probe and competitor fragments were made from annealing of separately synthesized strands, with/without one 5′ biotin labeled strand. The sequence used for NST2 was:
(§2) For C3H the sequence was: 5′-[…]-3′ (SEQ ID NO:42); and for C3HL the sequence was 5′-[…]-3′ (SEQ ID NO:43). The conserved WRKY binding motifs are underlined. The biotin-labeled and competitor DNA fragments were incubated for 20 min with 100 ng of AtWRKY12-MBP in binding buffer according to the EMSA kit protocol (Pierce, Rockford, Ill.), and reaction mixtures were loaded for polyacrylamide gel electrophoresis. The DNA was electroblotted onto nitrocellulose membrane and detected by the chemiluminescent method.
In general terms: A gel shift assay detects complexes by their altered migration in electrophoresis.

Data set [2] deals with T1, AtWRKY12. Put plainly: EMSA; 100 ng protein, 20 min, Pierce EMSA kit buffer. The settings on record: tags: MBP fusion, expressed in E. coli, amylose resin purified; label: 5' biotin on one strand.
Excerpt: as §1, §2

T1 sequence (Q93WY4 whole entry, the tested form may be a part): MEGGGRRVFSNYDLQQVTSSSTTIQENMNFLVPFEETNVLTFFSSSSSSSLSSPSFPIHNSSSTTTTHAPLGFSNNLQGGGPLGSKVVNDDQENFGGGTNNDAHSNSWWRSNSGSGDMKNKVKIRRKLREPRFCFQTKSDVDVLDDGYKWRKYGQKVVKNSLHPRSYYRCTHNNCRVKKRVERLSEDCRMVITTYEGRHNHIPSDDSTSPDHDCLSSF

B1: C3H14 promoter fragment (dsDNA)
DNA 1: TGGAAGATGCATGTTATTGACTAAATATGATCTACCA
DNA 2: TGGTAGATCATATTTAGTCAATAACATGCATCTTCCA
On to B1, for which the binding result with AtWRKY12 [1] was “no binding”.

B2: NST2 promoter fragment (dsDNA)
DNA 1: AAAGAGACCATTAGTATATTTGACCCAAAAAAAAATAAAAAAAAAAGAG
DNA 2: CTCTTTTTTTTTTATTTTTTTTTGGGTCAAATATACTAATGGTCTCTTT
For B2, in the data set with AtWRKY12 [2], the binding result is given as “binds”.

B3: C3H14L promoter fragment (dsDNA)
DNA 1: TGGCTTAAATCATATTGACAAGACCCATTAAAAAGAGG
DNA 2: CCTCTTTTTAATGGGTCTTGTCAATATGATTTAAGCCA
On to B3, for which, in the data set with AtWRKY12 [1], the binding result is “no binding”.
